Data from US20240270846A1 (published 2024).
Numbering of substitutions follows the chain as printed. Names may count otherwise.

B1: GLS3000 S25A one-arm antibody (H chain CE115HA000) (antibody, human IgG1, kappa, L234A L235A, N297A, name in Kabat numbering)
heavy: QVQLVESGGGVVQPGRSLRLSCAASGFTFSNAWMHWVRQAPGKGLEWVAQIKAKSNNYATYYAESVKGRFTISRDDSKNSLYLQMNSLKTEDTAVYYCRYVHYGAYYGVDAWGQGTTVTVSSASTKGPSVFPLAPSSKSTSGGTAALGCLVKDYFPEPVTVSWNSGALTSGVHTFPAVLQSSGLYSLSSVVTVPSSSLGTQTYICNVNHKPSNTKVDKKVEPKSCDKTHTCPPCPAPEAAGGPSVFLFPPKPKDTLMISRTPEVTCVVVDVSHEDPEVKFNWYVDGVEVHNAKTKPREEQYASTYRVVSVLTVLHQDWLNGKEYKCKVSNKALPAPIEKTISKAKGQPREPQVYTLPPSRCELTKNQVSLSCAVKGFYPSDIAVEWESNGQPENNYKTTPPVLDSDGSFFLVSKLTVDKSRWQQGNVFSCSVMHEALHNHYTQKSLSLSPDYKDDDDK
chain: EPKSSDKTHTCPPCPAPELLGGPSVFLFPPKPKDTLMISRTPEVTCVVVDVSHEDPEVKFNWYVDGVEVHNAKTKPREEQYNSTYRVVSVLTVLHQDWLNGKEYKCKVSNKALPAPIEKTISKAKGQPREPQVCTLPPSRDELTKNQVSLWCLVKGFYPSDIAVEWESNGQPENNYKTTPPVLDSDGSFFLYSKLTVDKSRWQQGNVFSCSVMHEALHNRYTQKSLSLSP
light: DIVMTQSPLSLPVTPGEPASISCRASQSLVHSNRNTYLHWYQQKPGQAPRLLIYKVSNRFSGVPDRFSGSGSGTDFTLKISRVEAEDVGVYYCGQGTQVPYTFGQGTKLEIKRTVAAPSVFIFPPSDEQLKSGTASVVCLLNNFYPREAKVQWKVDNALQSGNSQESVTEQDSKDSTYSLSSTLTLSKADYEKHKVYACEVTHQGLSSPVTKSFNRGEC
notes: one-arm antibody
B2: GLS3000 S25D one-arm antibody (H chain CE115HA000) (antibody, human IgG1, kappa, L234A L235A, N297A, name in Kabat numbering)
heavy: B1 heavy
chain: B1 chain
light: B1 light with A25D
notes: one-arm antibody
B3: GLS3000 S25E one-arm antibody (H chain CE115HA000) (antibody, human IgG1, kappa, L234A L235A, N297A, name in Kabat numbering)
heavy: B1 heavy
chain: B1 chain
light: B1 light with A25E
notes: one-arm antibody
B4: GLS3000 S25I one-arm antibody (H chain CE115HA000) (antibody, human IgG1, kappa, L234A L235A, N297A, name in Kabat numbering)
heavy: B1 heavy
chain: B1 chain
light: B1 light with A25I
notes: one-arm antibody
B5: GLS3000 S25L one-arm antibody (H chain CE115HA000) (antibody, human IgG1, kappa, L234A L235A, N297A, name in Kabat numbering)
heavy: B1 heavy
chain: B1 chain
light: B1 light with A25L
notes: one-arm antibody
B6: GLS3000 S25M one-arm antibody (H chain CE115HA000) (antibody, human IgG1, kappa, L234A L235A, N297A, name in Kabat numbering)
heavy: B1 heavy
chain: B1 chain
light: B1 light with A25M
notes: one-arm antibody
B7: GLS3000 S25P one-arm antibody (H chain CE115HA000) (antibody, human IgG1, kappa, L234A L235A, N297A, name in Kabat numbering)
heavy: B1 heavy
chain: B1 chain
light: B1 light with A25P
notes: one-arm antibody
B8: GLS3000 S25T one-arm antibody (H chain CE115HA000) (antibody, human IgG1, kappa, L234A L235A, N297A, name in Kabat numbering)
heavy: B1 heavy
chain: B1 chain
light: B1 light with A25T
notes: one-arm antibody
B9: GLS3000 S25V one-arm antibody (H chain CE115HA000) (antibody, human IgG1, kappa, L234A L235A, N297A, name in Kabat numbering)
heavy: B1 heavy
chain: B1 chain
light: B1 light with A25V
notes: one-arm antibody
B10: GLS3000 S26D one-arm antibody (H chain CE115HA000) (antibody, human IgG1, kappa, L234A L235A, N297A, name in Kabat numbering)
heavy: B1 heavy
chain: B1 chain
light: B1 light with A25S, S26D
notes: one-arm antibody
B11: GLS3000 S26E one-arm antibody (H chain CE115HA000) (antibody, human IgG1, kappa, L234A L235A, N297A, name in Kabat numbering)
heavy: B1 heavy
chain: B1 chain
light: B1 light with A25S, S26E
notes: one-arm antibody
B12: GLS3000 S26P one-arm antibody (H chain CE115HA000) (antibody, human IgG1, kappa, L234A L235A, N297A, name in Kabat numbering)
heavy: B1 heavy
chain: B1 chain
light: B1 light with A25S, S26P
notes: one-arm antibody
B13: GLS3000 S27aD one-arm antibody (H chain CE115HA000) (antibody, human IgG1, kappa, L234A L235A, N297A, name in Kabat numbering)
heavy: B1 heavy
chain: B1 chain
light: B1 light with A25S, S28D
notes: one-arm antibody
B14: GLS3000 S27aE one-arm antibody (H chain CE115HA000) (antibody, human IgG1, kappa, L234A L235A, N297A, name in Kabat numbering)
heavy: B1 heavy
chain: B1 chain
light: B1 light with A25S, S28E
notes: one-arm antibody
B15: GLS3000 S27aG one-arm antibody (H chain CE115HA000) (antibody, human IgG1, kappa, L234A L235A, N297A, name in Kabat numbering)
heavy: B1 heavy
chain: B1 chain
light: B1 light with A25S, S28G
notes: one-arm antibody
B16: GLS3000 S27aI one-arm antibody (H chain CE115HA000) (antibody, human IgG1, kappa, L234A L235A, N297A, name in Kabat numbering)
heavy: B1 heavy
chain: B1 chain
light: B1 light with A25S, S28I
notes: one-arm antibody
B17: GLS3000 S27aN one-arm antibody (H chain CE115HA000) (antibody, human IgG1, kappa, L234A L235A, N297A, name in Kabat numbering)
heavy: B1 heavy
chain: B1 chain
light: B1 light with A25S, S28N
notes: one-arm antibody
B18: GLS3000 S27aP one-arm antibody (H chain CE115HA000) (antibody, human IgG1, kappa, L234A L235A, N297A, name in Kabat numbering)
heavy: B1 heavy
chain: B1 chain
light: B1 light with A25S, S28P
notes: one-arm antibody
B19: GLS3000 S27aY one-arm antibody (H chain CE115HA000) (antibody, human IgG1, kappa, L234A L235A, N297A, name in Kabat numbering)
heavy: B1 heavy
chain: B1 chain
light: B1 light with A25S, S28Y
notes: one-arm antibody
B20: GLS3000 S27eA one-arm antibody (H chain CE115HA000) (antibody, human IgG1, kappa, L234A L235A, N297A, name in Kabat numbering)
heavy: B1 heavy
chain: B1 chain
light: B1 light with A25S, S32A
notes: one-arm antibody
B21: GLS3000 S27eD one-arm antibody (H chain CE115HA000) (antibody, human IgG1, kappa, L234A L235A, N297A, name in Kabat numbering)
heavy: B1 heavy
chain: B1 chain
light: B1 light with A25S, S32D
notes: one-arm antibody
B22: GLS3000 S27eE one-arm antibody (H chain CE115HA000) (antibody, human IgG1, kappa, L234A L235A, N297A, name in Kabat numbering)
heavy: B1 heavy
chain: B1 chain
light: B1 light with A25S, S32E
notes: one-arm antibody
B23: GLS3000 S27eF one-arm antibody (H chain CE115HA000) (antibody, human IgG1, kappa, L234A L235A, N297A, name in Kabat numbering)
heavy: B1 heavy
chain: B1 chain
light: B1 light with A25S, S32F
notes: one-arm antibody
B24: GLS3000 S27eG one-arm antibody (H chain CE115HA000) (antibody, human IgG1, kappa, L234A L235A, N297A, name in Kabat numbering)
heavy: B1 heavy
chain: B1 chain
light: B1 light with A25S, S32G
notes: one-arm antibody
B25: GLS3000 S27eH one-arm antibody (H chain CE115HA000) (antibody, human IgG1, kappa, L234A L235A, N297A, name in Kabat numbering)
heavy: B1 heavy
chain: B1 chain
light: B1 light with A25S, S32H
notes: one-arm antibody
B26: GLS3000 S27eI one-arm antibody (H chain CE115HA000) (antibody, human IgG1, kappa, L234A L235A, N297A, name in Kabat numbering)
heavy: B1 heavy
chain: B1 chain
light: B1 light with A25S, S32I
notes: one-arm antibody
B27: GLS3000 S27eK one-arm antibody (H chain CE115HA000) (antibody, human IgG1, kappa, L234A L235A, N297A, name in Kabat numbering)
heavy: B1 heavy
chain: B1 chain
light: B1 light with A25S, S32K
notes: one-arm antibody
B28: GLS3000 S27eL one-arm antibody (H chain CE115HA000) (antibody, human IgG1, kappa, L234A L235A, N297A, name in Kabat numbering)
heavy: B1 heavy
chain: B1 chain
light: B1 light with A25S, S32L
notes: one-arm antibody
B29: GLS3000 S27eM one-arm antibody (H chain CE115HA000) (antibody, human IgG1, kappa, L234A L235A, N297A, name in Kabat numbering)
heavy: B1 heavy
chain: B1 chain
light: B1 light with A25S, S32M
notes: one-arm antibody
B30: GLS3000 S27eN one-arm antibody (H chain CE115HA000) (antibody, human IgG1, kappa, L234A L235A, N297A, name in Kabat numbering)
heavy: B1 heavy
chain: B1 chain
light: B1 light with A25S, S32N
notes: one-arm antibody
B31: GLS3000 S27eP one-arm antibody (H chain CE115HA000) (antibody, human IgG1, kappa, L234A L235A, N297A, name in Kabat numbering)
heavy: B1 heavy
chain: B1 chain
light: B1 light with A25S, S32P
notes: one-arm antibody
B32: GLS3000 S27eQ one-arm antibody (H chain CE115HA000) (antibody, human IgG1, kappa, L234A L235A, N297A, name in Kabat numbering)
heavy: B1 heavy
chain: B1 chain
light: B1 light with A25S, S32Q
notes: one-arm antibody

Molecular target: T1, CD3 epsilon homodimer protein (UniProt P07766 23-126)
T1 construct: also called CD3 (CD3 epsilon)
T1 sequence (P07766 23-126): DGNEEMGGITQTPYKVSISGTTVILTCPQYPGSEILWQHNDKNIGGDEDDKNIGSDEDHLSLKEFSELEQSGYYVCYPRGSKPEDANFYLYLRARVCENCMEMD
Test: SPR, CD3e homodimer on chip;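 also: surface plasmon resonance at 25 degrees C, antibodies flowed as analyte over CD3 epsilon homodimer amine-coupled to a CM4 chip, running buffer HBS-EP+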

Point of comparison: B25, “ratio of amounts bound (altered form / unaltered GLS3000 antibody)” value 1.23. Against it:
- B1 — lower, 0.92
- B2 — lower, 0.18
- B3 — lower, 0.21
- B4 — lower, 0.53
- B5 — lower, 0.24
- B6 — lower, 0.31
- B7 — lower, 1.01
- B8 — lower, 0.83
- B9 — lower, 0.73
- B10 — lower, 0.86
- B11 — lower, 0.74
- B12 — lower, 0.78
- B13 — lower, 0.79
- B14 — lower, 0.81
- B15 — lower, 1.03
- B16 — lower, 1
- B17 — lower, 1.1
- B18 — lower, 0.99
- B19 — lower, 1.1
- B20 — lower, 1.03
- B21 — lower, 0.69
- B22 — lower, 0.76
- B23 — higher, 1.32
- B24 — lower, 1.04
- B26 — lower, 1.07
- B27 — higher, 1.59
- B28 — lower, 1.17
- B29 — the same, 1.23
- B30 — lower, 1.16
- B31 — higher, 1.26
- B32 — lower, 1.1
